Experiments:
[1] = target: T1, FcγRIa extracellular domain with C-terminal His tag (human, UniProt P12314 16-292); assay: SPR (Biacore), relative binding, HeCon Ab = 100
T1 construct: extracellular domain; Expressed in FreeStyle293 cells; analyte in the SPR assay; also called FcgRI; 1a

[2] = target: T2, FcγRIIb extracellular domain with C-terminal His tag (human, UniProt P31994 43-217); assay: SPR (Biacore), relative binding, HeCon Ab = 100
T2 construct: extracellular domain; Expressed in FreeStyle293 cells; analyte in the SPR assay; also called FcgRIIb; 2b
T2 sequence (looked up): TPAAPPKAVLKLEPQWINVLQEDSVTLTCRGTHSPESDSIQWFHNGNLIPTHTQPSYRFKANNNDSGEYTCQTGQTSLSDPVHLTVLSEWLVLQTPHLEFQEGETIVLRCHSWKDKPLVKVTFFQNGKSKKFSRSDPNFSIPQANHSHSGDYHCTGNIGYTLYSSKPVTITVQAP

T1 sequence (P12314 16-292): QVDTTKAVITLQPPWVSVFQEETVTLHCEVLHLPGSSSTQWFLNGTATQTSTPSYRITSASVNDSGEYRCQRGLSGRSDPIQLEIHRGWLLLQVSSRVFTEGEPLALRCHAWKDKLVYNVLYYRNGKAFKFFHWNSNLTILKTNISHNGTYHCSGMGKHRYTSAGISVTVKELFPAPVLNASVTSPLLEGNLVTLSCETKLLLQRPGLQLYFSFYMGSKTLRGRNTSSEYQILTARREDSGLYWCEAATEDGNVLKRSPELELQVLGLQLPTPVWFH

Row | Binder | He/Con_1a [1] | He/Con_2b [2]
1 | GpH7-A5/GpH7-B3 variant E269_06M/GpL16-k0 (He Ab) (antibody, human IgG1, kappa, He Ab: mutation in one H chain only) heavy 1: not shown heavy 2: not shown light: DIVMTQSPLSLPVTPGEPASISCQASESLVHSNRNTYLHWYLQKPGQSPQLLIYKVSNRFSGVPDRFSGSGSGTDFTLKISRVEAEDVGVYYCSQNTHVPPTFGQGTKVEIERTVAAPSVFIFPPSDEQLKSGTASVVCLLNNFYPREAKVQWKVDNALQSGNSQESVTEQDSKDSTYSLSSTLTLSKADYEKHKVYACEVTHQGLSSPVTKSFNRGEC | 104 % of HeCon Ab (=100) | 46.7 % of HeCon Ab (=100)
2 | GpH7-A5/GpH7-B3 variant E269_07I/GpL16-k0 (He Ab) (antibody, human IgG1, kappa, He Ab: mutation in one H chain only) heavy 1: not shown heavy 2: not shown light: DIVMTQSPLSLPVTPGEPASISCQASESLVHSNRNTYLHWYLQKPGQSPQLLIYKVSNRFSGVPDRFSGSGSGTDFTLKISRVEAEDVGVYYCSQNTHVPPTFGQGTKVEIERTVAAPSVFIFPPSDEQLKSGTASVVCLLNNFYPREAKVQWKVDNALQSGNSQESVTEQDSKDSTYSLSSTLTLSKADYEKHKVYACEVTHQGLSSPVTKSFNRGEC | 103 % of HeCon Ab (=100) | 43.9 % of HeCon Ab (=100)
3 | GpH7-A5/GpH7-B3 variant E269_08L/GpL16-k0 (He Ab) (antibody, human IgG1, kappa, He Ab: mutation in one H chain only) heavy 1: not shown heavy 2: not shown light: DIVMTQSPLSLPVTPGEPASISCQASESLVHSNRNTYLHWYLQKPGQSPQLLIYKVSNRFSGVPDRFSGSGSGTDFTLKISRVEAEDVGVYYCSQNTHVPPTFGQGTKVEIERTVAAPSVFIFPPSDEQLKSGTASVVCLLNNFYPREAKVQWKVDNALQSGNSQESVTEQDSKDSTYSLSSTLTLSKADYEKHKVYACEVTHQGLSSPVTKSFNRGEC | 104 % of HeCon Ab (=100) | 42.9 % of HeCon Ab (=100)
4 | GpH7-A5/GpH7-B3 variant E269_13S/GpL16-k0 (He Ab) (antibody, human IgG1, kappa, He Ab: mutation in one H chain only) heavy 1: not shown heavy 2: not shown light: DIVMTQSPLSLPVTPGEPASISCQASESLVHSNRNTYLHWYLQKPGQSPQLLIYKVSNRFSGVPDRFSGSGSGTDFTLKISRVEAEDVGVYYCSQNTHVPPTFGQGTKVEIERTVAAPSVFIFPPSDEQLKSGTASVVCLLNNFYPREAKVQWKVDNALQSGNSQESVTEQDSKDSTYSLSSTLTLSKADYEKHKVYACEVTHQGLSSPVTKSFNRGEC | 103 % of HeCon Ab (=100) | 47.8 % of HeCon Ab (=100)
5 | GpH7-A5/GpH7-B3 variant E269_14T/GpL16-k0 (He Ab) (antibody, human IgG1, kappa, He Ab: mutation in one H chain only) heavy 1: not shown heavy 2: not shown light: DIVMTQSPLSLPVTPGEPASISCQASESLVHSNRNTYLHWYLQKPGQSPQLLIYKVSNRFSGVPDRFSGSGSGTDFTLKISRVEAEDVGVYYCSQNTHVPPTFGQGTKVEIERTVAAPSVFIFPPSDEQLKSGTASVVCLLNNFYPREAKVQWKVDNALQSGNSQESVTEQDSKDSTYSLSSTLTLSKADYEKHKVYACEVTHQGLSSPVTKSFNRGEC | 106 % of HeCon Ab (=100) | 50.6 % of HeCon Ab (=100)
6 | GpH7-A5/GpH7-B3 variant E269_15Y/GpL16-k0 (He Ab) (antibody, human IgG1, kappa, He Ab: mutation in one H chain only) heavy 1: not shown heavy 2: not shown light: DIVMTQSPLSLPVTPGEPASISCQASESLVHSNRNTYLHWYLQKPGQSPQLLIYKVSNRFSGVPDRFSGSGSGTDFTLKISRVEAEDVGVYYCSQNTHVPPTFGQGTKVEIERTVAAPSVFIFPPSDEQLKSGTASVVCLLNNFYPREAKVQWKVDNALQSGNSQESVTEQDSKDSTYSLSSTLTLSKADYEKHKVYACEVTHQGLSSPVTKSFNRGEC | 106 % of HeCon Ab (=100) | 44.7 % of HeCon Ab (=100)
7 | GpH7-A5/GpH7-B3 variant E269_16H/GpL16-k0 (He Ab) (antibody, human IgG1, kappa, He Ab: mutation in one H chain only) heavy 1: not shown heavy 2: not shown light: DIVMTQSPLSLPVTPGEPASISCQASESLVHSNRNTYLHWYLQKPGQSPQLLIYKVSNRFSGVPDRFSGSGSGTDFTLKISRVEAEDVGVYYCSQNTHVPPTFGQGTKVEIERTVAAPSVFIFPPSDEQLKSGTASVVCLLNNFYPREAKVQWKVDNALQSGNSQESVTEQDSKDSTYSLSSTLTLSKADYEKHKVYACEVTHQGLSSPVTKSFNRGEC | 106 % of HeCon Ab (=100) | 38.5 % of HeCon Ab (=100)
8 | GpH7-A5/GpH7-B3 variant E269_18N/GpL16-k0 (He Ab) (antibody, human IgG1, kappa, He Ab: mutation in one H chain only) heavy 1: not shown heavy 2: not shown light: DIVMTQSPLSLPVTPGEPASISCQASESLVHSNRNTYLHWYLQKPGQSPQLLIYKVSNRFSGVPDRFSGSGSGTDFTLKISRVEAEDVGVYYCSQNTHVPPTFGQGTKVEIERTVAAPSVFIFPPSDEQLKSGTASVVCLLNNFYPREAKVQWKVDNALQSGNSQESVTEQDSKDSTYSLSSTLTLSKADYEKHKVYACEVTHQGLSSPVTKSFNRGEC | 102 % of HeCon Ab (=100) | 44.8 % of HeCon Ab (=100)
9 | GpH7-A5/GpH7-B3 variant E269_19Q/GpL16-k0 (He Ab) (antibody, human IgG1, kappa, He Ab: mutation in one H chain only) heavy 1: not shown heavy 2: not shown light: DIVMTQSPLSLPVTPGEPASISCQASESLVHSNRNTYLHWYLQKPGQSPQLLIYKVSNRFSGVPDRFSGSGSGTDFTLKISRVEAEDVGVYYCSQNTHVPPTFGQGTKVEIERTVAAPSVFIFPPSDEQLKSGTASVVCLLNNFYPREAKVQWKVDNALQSGNSQESVTEQDSKDSTYSLSSTLTLSKADYEKHKVYACEVTHQGLSSPVTKSFNRGEC | 105 % of HeCon Ab (=100) | 44.3 % of HeCon Ab (=100)
10 | GpH7-A5/GpH7-B3 variant E269_20W/GpL16-k0 (He Ab) (antibody, human IgG1, kappa, He Ab: mutation in one H chain only) heavy 1: not shown heavy 2: not shown light: DIVMTQSPLSLPVTPGEPASISCQASESLVHSNRNTYLHWYLQKPGQSPQLLIYKVSNRFSGVPDRFSGSGSGTDFTLKISRVEAEDVGVYYCSQNTHVPPTFGQGTKVEIERTVAAPSVFIFPPSDEQLKSGTASVVCLLNNFYPREAKVQWKVDNALQSGNSQESVTEQDSKDSTYSLSSTLTLSKADYEKHKVYACEVTHQGLSSPVTKSFNRGEC | 105 % of HeCon Ab (=100) | 42.5 % of HeCon Ab (=100)
11 | GpH7-A5/GpH7-B3 variant G236_02A/GpL16-k0 (He Ab) (antibody, human IgG1, kappa, He Ab: mutation in one H chain only) heavy 1: not shown heavy 2: not shown light: DIVMTQSPLSLPVTPGEPASISCQASESLVHSNRNTYLHWYLQKPGQSPQLLIYKVSNRFSGVPDRFSGSGSGTDFTLKISRVEAEDVGVYYCSQNTHVPPTFGQGTKVEIERTVAAPSVFIFPPSDEQLKSGTASVVCLLNNFYPREAKVQWKVDNALQSGNSQESVTEQDSKDSTYSLSSTLTLSKADYEKHKVYACEVTHQGLSSPVTKSFNRGEC | 100 % of HeCon Ab (=100) | 96.5 % of HeCon Ab (=100)
12 | GpH7-A5/GpH7-B3 variant G236_20W/GpL16-k0 (He Ab) (antibody, human IgG1, kappa, He Ab: mutation in one H chain only) heavy 1: not shown heavy 2: not shown light: DIVMTQSPLSLPVTPGEPASISCQASESLVHSNRNTYLHWYLQKPGQSPQLLIYKVSNRFSGVPDRFSGSGSGTDFTLKISRVEAEDVGVYYCSQNTHVPPTFGQGTKVEIERTVAAPSVFIFPPSDEQLKSGTASVVCLLNNFYPREAKVQWKVDNALQSGNSQESVTEQDSKDSTYSLSSTLTLSKADYEKHKVYACEVTHQGLSSPVTKSFNRGEC | 105 % of HeCon Ab (=100) | 58.2 % of HeCon Ab (=100)
13 | GpH7-A5/GpH7-B3 variant H268_04F/GpL16-k0 (He Ab) (antibody, human IgG1, kappa, He Ab: mutation in one H chain only) heavy 1: not shown heavy 2: not shown light: DIVMTQSPLSLPVTPGEPASISCQASESLVHSNRNTYLHWYLQKPGQSPQLLIYKVSNRFSGVPDRFSGSGSGTDFTLKISRVEAEDVGVYYCSQNTHVPPTFGQGTKVEIERTVAAPSVFIFPPSDEQLKSGTASVVCLLNNFYPREAKVQWKVDNALQSGNSQESVTEQDSKDSTYSLSSTLTLSKADYEKHKVYACEVTHQGLSSPVTKSFNRGEC | 106 % of HeCon Ab (=100) | 89.6 % of HeCon Ab (=100)
14 | GpH7-A5/GpH7-B3 variant H268_06M/GpL16-k0 (He Ab) (antibody, human IgG1, kappa, He Ab: mutation in one H chain only) heavy 1: not shown heavy 2: not shown light: DIVMTQSPLSLPVTPGEPASISCQASESLVHSNRNTYLHWYLQKPGQSPQLLIYKVSNRFSGVPDRFSGSGSGTDFTLKISRVEAEDVGVYYCSQNTHVPPTFGQGTKVEIERTVAAPSVFIFPPSDEQLKSGTASVVCLLNNFYPREAKVQWKVDNALQSGNSQESVTEQDSKDSTYSLSSTLTLSKADYEKHKVYACEVTHQGLSSPVTKSFNRGEC | 105 % of HeCon Ab (=100) | 65.7 % of HeCon Ab (=100)
15 | GpH7-A5/GpH7-B3 variant H268_07I/GpL16-k0 (He Ab) (antibody, human IgG1, kappa, He Ab: mutation in one H chain only) heavy 1: not shown heavy 2: not shown light: DIVMTQSPLSLPVTPGEPASISCQASESLVHSNRNTYLHWYLQKPGQSPQLLIYKVSNRFSGVPDRFSGSGSGTDFTLKISRVEAEDVGVYYCSQNTHVPPTFGQGTKVEIERTVAAPSVFIFPPSDEQLKSGTASVVCLLNNFYPREAKVQWKVDNALQSGNSQESVTEQDSKDSTYSLSSTLTLSKADYEKHKVYACEVTHQGLSSPVTKSFNRGEC | 108 % of HeCon Ab (=100) | 88.9 % of HeCon Ab (=100)

— US20150344570A1 (published 2015)
